Experimental findings from publication doi:10.1101/394452 (bioRxiv, 2018) are described below.

This data set concerns the molecule itself. Briefly: small angle X-ray scattering.

B1: phospho-mimetic tbWag31-T73E (DivIVA/Wag31 from M. tuberculosis, Rv2145c) (natural protein)
chain: MPLTPADVHNVAFSKPPIGKRGYNEDEVDAFLDLVENELTRLIEENSDLRQRINELDQELAAGGGAGVTPQAEQAIPAYEPEPGKPAPAAVSAGMNEEQALKAARVLSLAQDTADRLTNTAKAESDKMLADARANAEQILGEARHTADATVAEARQRADAMLADAQSRSEAQLRQAQEKADALQADAERKHSEIMGTINQQRAVLEGRLEQLRTFEREYRTRLKTYLESQLEELGQRGSAAPVDSNADAGGFDQFNRGKN
With B1, the binding result is recorded as “binds”.

B2: phospho-ablative tbWag31-T73A (DivIVA/Wag31 from M. tuberculosis, Rv2145c) (natural protein)
chain: MPLTPADVHNVAFSKPPIGKRGYNEDEVDAFLDLVENELTRLIEENSDLRQRINELDQELAAGGGAGVTPQAAQAIPAYEPEPGKPAPAAVSAGMNEEQALKAARVLSLAQDTADRLTNTAKAESDKMLADARANAEQILGEARHTADATVAEARQRADAMLADAQSRSEAQLRQAQEKADALQADAERKHSEIMGTINQQRAVLEGRLEQLRTFEREYRTRLKTYLESQLEELGQRGSAAPVDSNADAGGFDQFNRGKN
Take B2: the binding result is recorded as “binds”.
